The values that follow come from article PMC8251938, “Cooperation between a T Domain and a Minimal C‐Terminal Docking Domain to Enable Specific Assembly in a Multiprotein NRPS” (Angewandte Chemie (International Ed. in English), 2021).

Experiment [1] concerns the target PaxA_(981-1084), T1-CDD di-domain construct (apo), X. cabanillasii JM26 (Xenorhabdus cabanillasii JM26) (UniProt W1J0W9). The experiment is described as follows: ITC; PaxA construct titrated with the PaxB NDD peptide or its variant; n=3 for the variants. (Isothermal titration calorimetry measures the heat released or taken up as one component is titrated into another.)

Experiment [2] has as its target PaxA_(986-1089), T1-CDD di-domain construct (apo), X. bovienii SS-2004 (Xenorhabdus bovienii SS-2004). Described as above.
Experiment [3] has as its target T1, PaxB_(1-30) (PaxB NDD), X. cabanillasii JM26 (Xenorhabdus cabanillasii JM26).
T1 chain: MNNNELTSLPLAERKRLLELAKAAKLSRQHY
The experiment is described as follows: ITC; replicate 1.

Experiment [4] addresses T1, PaxB_(1-30) (PaxB NDD), X. cabanillasii …. Kind of experiment: ITC; replicate 3.
Experiment [5] has the same target. The experiment is described as follows: ITC; apo, replicate 1.
Experiment [6] has the same target. The experiment is described as follows: ITC; apo, replicate 3.
The target is the same in experiment [7]. Kind of experiment: ITC; holo (Ppant), replicate 1.
Experiment [8] has the same target. Kind of experiment: ITC; holo (Ppant), replicate 2.
Experiment [9] shares this target. The experiment is described as follows: ITC; holo (Ppant), replicate 3.
The target is the same in experiment [10]. Kind of experiment: ITC; holo (Ppant), mean of three replicates.
The subject of another experiment is PaxB NDD. The experiment is described as follows: ITC titration of X. cabanillasii PaxA constructs with PaxB NDD. The format is binding, Xenorhabdus cabanillasii JM26. The note with it: X. cabanillasii JM26, 20 °C, pH 6.5, one site model. The source says:
Unfortunately, despite its very high affinity the complex between the PaxA T1‐^CDD di‐domain construct and the PaxB ^NDD peptide from the PaxS NRPS from X. bovienii SS‐2004 was not suitable for a full structure determination. The closely related species Xenorhabdus cabanillasii JM26 also contains the PaxS NRPS with PaxA and PaxB (Figure S4). […] The affinity of this interaction was not modulated by the presence of the Ppant moiety in the PaxA T1 domain (Figure S7). […] Thus, the interaction between PaxA and PaxB from the PaxS NRPS of X. cabanillasii has biophysical properties very similar to the one from the X. bovienii system and was amenable to a full structural characterization by NMR spectroscopy.
England BioLabs) approach following the manufacturer`s instructions.
Protein expression and purification […]
interactions, proteins from Xenorhabdus cabanillasii and Xenorhabdus bovienii were […]
BAP1 under the control of a T7 promoter. All proteins of interest were expressed as SUMO […]
concentration measurements upon cleavage with Ulp protease. All constructs containing the […]
measurements, proteins were expressed in LB medium. Protein expression was induced at an […]
After expression, cells were lysed by […]
spectrometers equipped with cryogenic 5 mm triple resonance probes. The proton chemical […]
mercaptoethanol and 5 % D2O. Sequential assignments of backbone amide signals and […]

In general, Kd refers to the free concentration of one partner at which half of the binding sites on the other are occupied at equilibrium, for simple one-to-one binding. Regarding “PaxB NDD R16E mutant, X. cabanillasii JM26 (domain or fragment)”, the Kd in experiment [1] is 2800 nM.
In the case of “PaxB NDD K22E mutant, X. cabanillasii JM26 (domain or fragment)”, the Kd in [1] turned out to be 3800 nM. The Kd values of the last two molecules are within 1.5-fold of each other.
What is called stoichiometry N is a count of units in the complex or per binding partner. In [2], “PaxB_(1-36) (PaxB NDD), X. bovienii SS-2004 (domain or fragment)” came in with an equilibrium dissociation constant (Kd) of 201 nM and a stoichiometry N of 0.74.
Consider “PaxB_(1-30) (PaxB NDD), X. cabanillasii JM26 (domain or fragment)”, for which, in experiment [1], the Kd was 248 nM and the stoichiometry N came out at 0.88.
In experiment [1], “PaxB NDD P10L variant, X. cabanillasii JM26 (domain or fragment)” showed a dissociation constant (Kd) of 3900 nM.

B1: PaxA_(981-1084), T1-CDD di-domain construct (apo), X. cabanillasii JM26 (domain or fragment)
chain: DHSSVITQEYAAPQGEIEEQLADIWQTILKIDRIGRYDNFFELGGHSLLVLQLQSRINEIFDVDISIQQLFAHPSICQLEECIINAQLLQFDADSLQDIYKSME
Take B1: the dissociation constant Kd came out at 267 nM in experiment [3], 224 nM in [4], 267 nM in experiment [5] and 224 nM in experiment [6].

B2: PaxA T1-CDD di-domain with the Ppant moiety (holo), X. cabanillasii JM26 (domain or fragment)
chain: DHSSVITQEYAAPQGEIEEQLADIWQTILKIDRIGRYDNFFELGGHSLLVLQLQSRINEIFDVDISIQQLFAHPSICQLEECIINAQLLQFDADSLQDIYKSME
modifications: phosphopantetheinyl (Ppant) arm attached to residue S1027
As to B2, the dissociation constant (Kd) in [7] worked out at 248 nM; in [8], 220 nM; in experiment [9] it was 192 nM; in experiment [10], 220 nM.

B3: PaxA981–1084: X. cabanillasii PaxA T1-CDD di-domain (protein)
chain: DHSSVITQEYAAPQGEIEEQLADIWQTILKIDRIGRYDNFFELGGHSLLVLQLQSRINEIFDVDISIQQLFAHPSICQLEECIINAQLLQFDADSLQDIYKSME
Consider B3, for which the “n (binding stoichiometry)” value in the experiment on PaxB NDD was found to be 0.88±0.01 sites.
